Consider one molecule from publication PMC11153517.

Assay [1] concerns the target human tumor necrosis factor (TNF)-α (human) (UniProt P01375).
Assay [2] has the same target. The source holds these as a separate data set.

Chain of UniProt P01375 (P01375 whole entry): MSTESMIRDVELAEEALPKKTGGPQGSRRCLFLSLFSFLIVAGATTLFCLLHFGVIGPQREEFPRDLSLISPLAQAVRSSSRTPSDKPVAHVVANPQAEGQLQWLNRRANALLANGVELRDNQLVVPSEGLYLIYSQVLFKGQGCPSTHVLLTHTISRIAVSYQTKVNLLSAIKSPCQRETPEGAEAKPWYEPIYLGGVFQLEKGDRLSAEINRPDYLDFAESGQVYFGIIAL

With PIYLGGVFQ [peptide …], the inhibition of TNFα-induced NFκB (p65) nuclear translocation in A549 cells, Western blot of nuclear extract; peptide 50, 100 and 200 μM (49%, 56% and 65%) in assay [1] was 65 % inhibition. The same molecule registered an apoptosis of Wehi-164 cells with TNFα (100 ng/ml) and actinomycin D, MTT assay, 20 h; peptide 50, 100 and 200 μM premixed with TNFα; 70% cell death with TNFα and AcD without the peptide in assay [2] of 26.4 % apoptosis.
